Test results published in paper PMC11452484 (Nature Communications, 2024).

B1: G. sulfurreducens SPARSA complex (short pAgo/Sir2-APAZ heterodimer) (complex)
chain 1: not shown
chain 2: MDVLTDNEFYQHYLQNSQHMMWFLGAGTSRSAGLPTASDIIWDLKHRYYCLHENQDYQKHDINNHAIKSKIQSYMDSKGFPLQWSPEEYSFYFELVFRDDYEAQRKYLLEALASRKVSLNIGHRVLAALLEMNQTKVVFTTNFDDVIETAFSDISGKHLSVYHLEGSYAALSALNTEAFPIYAKIHGDFRYQKIKNLTPDLQTNDREIHKCFLAAAIRFGLVVSGYSGRDENVMTMLRAAIDQNNAFPHGLYWTVPSISKSEPAVQDLITYAQGKGVRAYLVETGTFDEMLSKIWRQVKDKPAAIDAKVRTARVCPVSIPLPGPGKSFPALRTNALPVVTQSIRCGVVTLASPITFSELKERISQKSPKALLTYTEKVLFLGGEPEIRKIFSNDEINSIGQYYIDEIAQSVAASTFLKSFVEEAILTALLREKPILHRVRHRTHYAVIPNASAKDDRFLDLRKAVGFKGDLGYITGNVTNAKELSWAEAVSIRLEERGGKLWIMLKPEIWIKPLDRREEATDFIRSRRRYRFNQCSYQILDAWIKILFGSIGGGGTVNISCFPDAEFKAEFEIGTRTAFSLGVGYGR
B2: Geobacter sulfurreducens Sir2-APAZ (natural protein, UniProt Q74DF6 1-587, looked up)
chain: MDVLTDNEFYQHYLQNSQHMMWFLGAGTSRSAGLPTASDIIWDLKHRYYCLHENQDYQKHDINNHAIKSKIQSYMDSKGFPLQWSPEEYSFYFELVFRDDYEAQRKYLLEALASRKVSLNIGHRVLAALLEMNQTKVVFTTNFDDVIETAFSDISGKHLSVYHLEGSYAALSALNTEAFPIYAKIHGDFRYQKIKNLTPDLQTNDREIHKCFLAAAIRFGLVVSGYSGRDENVMTMLRAAIDQNNAFPHGLYWTVPSISKSEPAVQDLITYAQGKGVRAYLVETGTFDEMLSKIWRQVKDKPAAIDAKVRTARVCPVSIPLPGPGKSFPALRTNALPVVTQSIRCGVVTLASPITFSELKERISQKSPKALLTYTEKVLFLGGEPEIRKIFSNDEINSIGQYYIDEIAQSVAASTFLKSFVEEAILTALLREKPILHRVRHRTHYAVIPNASAKDDRFLDLRKAVGFKGDLGYITGNVTNAKELSWAEAVSIRLEERGGKLWIMLKPEIWIKPLDRREEATDFIRSRRRYRFNQCSYQILDAWIKILFGSIGGGGTVNISCFPDAEFKAEFEIGTRTAFSLGVGYGR

Target: the molecule itself
Test: cryo-EM structure

Protein	stoichiometry N	binding result
B1	4	
B2		binds
